Reference: patent US6784155B1, “Inhibitor and stimulator of stem cell proliferation and uses thereof” (Wellstat Therapeutics Corporation, priority 1996, dated 2004)
No end group written: not given here.

Assay: Distribution of ubiquitin fusion proteins between soluble fraction and precipitate of E. coli lysate (SDS-PAGE)
Type: physicochemical
Settings: after centrifugation of the bacterial lysate
Description: To obtain protein for assay, 100 ml starter cultures in 250 ml shake flasks were grown from single colonies by overnight incubation (16-20 hours) in 2×YT medium with ampicillin (100 μg/ml), neomycin (10 μg/ml) and 1% glucose. Shaker flask cultures were maintained at 30° C. and 250 rpm in a New Brunswick environmental shaker incubator. The next morning the culture was diluted to liter with medium Cells were induced by IPTG addition to 1 mM (final dilution) at OD600=0.5 and harvested at OD600=0.8 by centrifugation. The harvested cells were resuspended in hypotonic lysis buffer (100 μl of 50 mM Tris, pH 10.0). The bacterial cells were lysed by subjecting the suspension to three cycles of freeze-thaw (dry ice-ethanol bath for freezing and 60° C. for thawing). The suspension was then sonicated for 10 min and centrifuged at 12,000 g for 10 min. The resulting supernatant was designated as “S1”. The cell pellet was resuspended in 50 mM Tris, pH10 and 2×SDS tricine loading buffer (Novex, San Diego, Calif.) (1:1). The mixture was then heated at 95° C. for 15 min and centrifuged at 12,000 g for 10 min. The portion of the precipitate capable of being resolubilized in this manner was called “P1”. The portion of the precipitate derived from the remaining pellet was called “P2”. P2 was resuspended in loading buffer as for P1. Samples from S1, P1 and P2 were analyzed by SDS-PAGE. […]

With “FPHFDLSHGSAQV [Peptide 43-55, amino acids 43-55 of human alpha hemoglobin]” the “fraction of bacterial lysate containing the peptide” value was “contained in the soluble fraction”.
